Source: US20020147146A1
One block for each molecule: values may come before it. Non-standard residues stand in square brackets, D forms with d. No end group written: not given here. pS = N[C@@H](COP(=O)(O)O)C(=O)O

Experiments:
[1] = test system: T1, 9CREB ILSRRPSYR (non-phosphorylated peptide)
T1 sequence: ILSRRPSYR

[2] = test system: T2, peptide #1 KRREILSRRPS(p)YR (derived from CREB protein)
T2 sequence: KRREILSRRPSYR

[3] = test system: T3, peptide #2 KRREILSRRPSYR (non-phosphorylated CREB peptide)
T3 sequence: KRREILSRRPSYR

[4] = test system: T4, peptide #3 ILSRRPS(p)YR (p9CREB)
T4 sequence: ILSRRPSYR

[5] = test system: T5, peptide #4 ILSRRPEYR (9ECREB)
T5 sequence: ILSRRPEYR

[6] = biological target: purified recombinant rabbit GSK-3 (glycogen synthase kinase-3) (rabbit); test: cell-based or functional assay
[7] = biological target: purified recombinant rabbit GSK-3 (glycogen synthase kinase-3) (rabbit); test: in vitro kinase assay of purified GSK-3 with PGS-1 substrate and 32P-ATP, Lineweaver-Burk analysis (competitive inhibition)

Molecule: purified recombinant rabbit GSK-3 (glycogen synthase kinase-3)
time course of peptide phosphorylation by GSK-3 [1]: 9CREB and 9ECREB completely failed to be phosphorylated by GSK-3
kinetic property (phosphorylation by GSK-3) [2]: A substrate
kinetic property (phosphorylation by GSK-3) [3]: Not a substrate
kinetic property (phosphorylation by GSK-3) [4]: A substrate
time course of peptide phosphorylation by GSK-3 [4]: only the phosphorylated peptide, p9CREB, was a substrate for GSK-3
time course of peptide phosphorylation by GSK-3 [5]: 9CREB and 9ECREB completely failed to be phosphorylated by GSK-3

IC50, inhibition of GSK-3 (in vitro kinase assay) [6]: 330 µM
IC50, inhibition of GSK-3 phosphorylation of PGS-1 substrate (32P incorporation) [6]: 150 µM
Molecule: KRREILARRP[pS]YR [peptide #5 …(p)YR]

IC50, inhibition of GSK-3 (in vitro kinase assay) [6]: 250 µM
Molecule: KEEPPAPPQ[pS]P [peptide #7 …(p)P (patterned after HSF-1 protein)]

IC50, inhibition of GSK-3 (in vitro kinase assay) [6]: 190 µM
Ki [7]: 76 µM
Molecule: KEAPPAPPQ[pS]P [peptide #8 …(p)P]
